{"source": "patent US20260167703A1", "about": "(Takeda / Millennium, published 2026)", "binders": {"B1": {"name": "DENV4-7D5 (antibody, V domains shown)", "VH": "QSVEESGGRLVTPGTPLTLTCTVSGIDLSSWEMGWVRQAPGKGLEWIGIIFPSGTIYYANWAKGRFAISKASTTVDLKITSPTTEDTATYFCGRHGGSLYLNIWGPGTLVTVSL", "VL": "AQVLTQTPSPVSAAVGGTVTINCQASQSVYVNRNLAWYQQKPGQPPKVLIYEASKLASGVPSRFKGSGSGTQFTLTISGVQCDDAATYYCQGEFGCSSADCIAFGGGTEVVVK", "notes": "also called Clone 7D5"}, "B2": {"name": "DENV4-8C7 (antibody, V domains shown)", "VH": "B1 VH with W31Y, A67T, A71T", "VL": "B1 VL", "notes": "also called Clone 8C7"}, "B3": {"name": "DENV4-9G8 (antibody, V domains shown)", "VH": "QSLEESGGGLVKPGASLTLTCTASGFSFSYRYWMSWVRQAPGKRPEWIACIDTGNGDTYYASRAKGRFTIMKTSSTTVTLQMTSLTVADTATYFCARSDVTLTGYGYGNLWGPGTLVTVSS", "VL": "DSVMTQTPASVSEPVGGTVTINCQASHNIYNSLAWYQQKPGQPPKLLIYRASTLESGVPSRVKGSGYGTEYTLTISDLECADAATYYCQQYYGGDDDGFGFGGGTEVVVK", "notes": "also called Clone 9G8"}, "B4": {"name": "DENV4-5B11 (antibody, V domains shown)", "VH": "QSVEESGGRLVTPGTPLTLTCTVSGFSLSDSAMSWVRQAPGKGLEWIGYIYAGSGTTYYASWAKGRFTISKTSTTVDLKITSPTTEDTATYFCARATAYVGYGYGDDTFDPWGPGTLVTVSS", "VL": "AYDMTQTPASVEVAVGGTVTIKCQASQSISSYLSWYQQKPGQRPKLLIYRASTLASGVSSRFKGSGSGTEFTLTISGVQCDDAATYYCQQGYSNSDVDNVFGGGTEVVVK", "notes": "also called Clone 5B11"}, "B5": {"name": "DENV4-7G4 (antibody, V domains shown)", "VH": "B4 VH with D30S, S31C, S34T, A52V, G53D, G55D, K71T, K79R, A96T, Y102G", "VL": "DVVMTQTPASVEAAVGGTVTINCQASQNINSYLSWYQQKPGQRPKLLIYRAFTLASGVSSRFKGSGSGTQFTLTISGVECADAATYYCQQGYSFSGVDNVFGGGTEVVVK", "notes": "also called Clone 7G4"}, "B6": {"name": "DENV4-7F2 (antibody, V domains shown)", "VH": "QSVEESGGRLVTPGTPLTLTCTVSGIDLSYYAMGWVRQAPGEGLECIGFIDTGDSAYYASWAKGRFTISKTSSTTVDLKITSPTPEDTATYFCGRSLSSYYDWDAFDPWGPGTLVTVSS", "VL": "AYDMTQTPASVEVAVGGTVTINCQASQTIGNLLAWYQQKPGQRPKLLIYRASTLASGVPSRFKGSGSGTQFTLTISGVECADAATYYCQQGASANDIDNSFGGGTAVVVK", "notes": "also called Clone 7F2"}, "B7": {"name": "DENV4-10A11 (antibody, V domains shown)", "VH": "QSVEESGGRLVTPGTPLTLTCTVSGINLSFYAMGWVRQAPGKGLECVGFIDTDNSAYYASWAKGRFTISKTSTTVDLKITSPTTEDTATYFCARSLSSFYDWDAFDPWGPGTLVTVSS", "VL": "B6 VL with N22K, Q24L, T28S, G30S, A94N, N95S, S100A, A106E", "notes": "also called Clone 10A11; 10A1l"}, "B8": {"name": "DENV2-3H11 (antibody, V domains shown)", "VH": "QSVEESGGRLVTPGTPLTLTCTVSGFSLINYDMSWIRQAPGKGLEWIGMVSGGGHTNYASWANGRFTISKTSSTTMDLKITSPTTEDTASYFCGRWDIWGPGTLVTVSL", "VL": "AVVVTQTASPVSAAVGGTVTISCQSSQSVYDDNWLAWYQQKPGQPPKQLIYRASRLASGVPSRFSGTGSGTQFTLTISGVQCDDAATYYCLGGYVDDGDTTFGGGTEVVVK", "notes": "also called DENV2-3H111"}, "B9": {"name": "DENV2-5F4 (antibody, V domains shown)", "VH": "QSVEESGGRLVKPDETLTLTCTVSGIDLSNTVISWVRQAPGKGLEYIGMITPSGSAYSATWAKGRVTISRTSTTVDLKIASPTTEDTATYFCARIAWSTGRNDIWGPGTLVTVSS", "VL": "AAVLTQTPPSVSAAVGGTVTIKCQSSQSVYNNNALSWYQQKPGQPPKLLIYQASKLSSGVSSRFSGSGSGTHFTLTISGVQCDDAATYYCLGIYDDDVDNTFGGGTEVVVG"}, "B10": {"name": "DENV2-8D8 (antibody, V domains shown)", "VH": "QSLEESGGRLVKPDETLTLTCTVSGIDLSSTIITWVRQAPGKGLEYIGIIGSSGSIISANWAKGRFTISRTSTTVDLKMTSLTTEDTATYFCARIAWSTGRNDIWGPGTLVTVSS", "VL": "B9 VL with K22S, Q52L, K55N, S57A, S61P, H72Q, Y89H, I93V, Y94D, G111K"}}, "note": "Changes are numbered by the printed parent chain.", "data": [{"biological_target": "T1, DENV-4 VLP (Dengue virus serotype 4, strain …, UniProt P09866 114-774)", "test": "Luminex, VLP-coupled beads", "units": {"EC50": "µg/mL"}, "values": [{"binder": "B1", "EC50": 0.0232}, {"binder": "B2", "EC50": 0.0176}, {"binder": "B3", "EC50": 0.0713}, {"binder": "B4", "EC50": 0.0192}, {"binder": "B5", "EC50": 0.0214}, {"binder": "B6", "EC50": 0.0407}, {"binder": "B7", "EC50": 0.0236}]}, {"biological_target": "T1, DENV-4 VLP", "test": "Luminex bead assay (antigen on MagPlex beads, MFI)", "values": [{"binder": "B8", "binding result": "no binding (tested: 10000 ng/mL)"}]}, {"biological_target": "T2, JE VLP (Japanese encephalitis virus, UniProt P27395)", "T2 construct": "virus-like particle; also called Japanese Encephalitis Virus VLP", "T2 sequence (P27395 128-794 limits assumed)": "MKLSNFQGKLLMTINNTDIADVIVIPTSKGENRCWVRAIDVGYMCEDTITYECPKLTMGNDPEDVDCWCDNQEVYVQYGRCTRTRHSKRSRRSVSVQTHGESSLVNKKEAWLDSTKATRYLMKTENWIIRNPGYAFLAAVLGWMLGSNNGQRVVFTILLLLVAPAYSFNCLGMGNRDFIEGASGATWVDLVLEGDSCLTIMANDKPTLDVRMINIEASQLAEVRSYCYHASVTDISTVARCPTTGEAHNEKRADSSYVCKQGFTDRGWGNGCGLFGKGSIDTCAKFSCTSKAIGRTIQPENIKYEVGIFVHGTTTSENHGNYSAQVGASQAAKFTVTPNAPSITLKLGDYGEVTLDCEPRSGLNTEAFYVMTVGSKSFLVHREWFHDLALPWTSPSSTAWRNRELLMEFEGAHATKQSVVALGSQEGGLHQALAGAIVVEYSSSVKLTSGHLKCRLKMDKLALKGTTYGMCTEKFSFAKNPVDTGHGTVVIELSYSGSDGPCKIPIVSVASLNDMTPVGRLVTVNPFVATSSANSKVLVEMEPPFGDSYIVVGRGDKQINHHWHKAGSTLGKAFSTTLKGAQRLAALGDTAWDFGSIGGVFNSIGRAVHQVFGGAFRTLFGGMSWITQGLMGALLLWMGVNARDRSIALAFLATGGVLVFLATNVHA", "test": "Luminex bead assay (antigen on MagPlex beads, MFI)", "values": [{"binder": "B8", "binding result": "no binding (tested: 10000 ng/mL)"}]}, {"biological_target": "T1, DENV-4 VLP", "test": "not given", "units": {"Response (nm)": "nm", "koff": "s⁻¹"}, "values": [{"binder": "B1", "Response (nm)": 2.45, "koff": "3.56e-05"}, {"binder": "B2", "Response (nm)": 2.38, "koff": "3.32e-05"}, {"binder": "B3", "Response (nm)": 0.137, "koff": "< 2e-05"}, {"binder": "B4", "Response (nm)": 2.39, "koff": "2.36e-05"}, {"binder": "B5", "Response (nm)": 2.16, "koff": "< 2e-05"}, {"binder": "B6", "Response (nm)": 2.32, "koff": "3.67e-05"}, {"binder": "B7", "Response (nm)": 2.17, "koff": "4.17e-05"}]}, {"biological_target": "T1, DENV-4 VLP", "test": "Luminex bead assay (antigen on MagPlex beads, MFI)", "remark": "another data set of the same source", "values": [{"binder": "B9", "binding result": "no binding (tested: 10000 ng/mL)"}, {"binder": "B10", "binding result": "no binding (tested: 10000 ng/mL)"}]}, {"biological_target": "T2, JE VLP", "test": "Luminex bead assay (antigen on MagPlex beads, MFI)", "remark": "another data set of the same source", "values": [{"binder": "B9", "binding result": "no binding (tested: 10000 ng/mL)"}, {"binder": "B10", "binding result": "no binding (tested: 10000 ng/mL)"}]}, {"biological_target": "T2, JE VLP", "test": "Luminex bead assay (antigen on MagPlex beads, MFI)", "remark": "another data set of the same source", "values": [{"binder": "B2", "binding result": "no binding (tested: 10000 ng/mL)"}, {"binder": "B3", "binding result": "no binding (tested: 10000 ng/mL)"}, {"binder": "B7", "binding result": "no binding (tested: 10000 ng/mL)"}]}, {"biological_target": "T2, JE VLP", "test": "Luminex bead assay (antigen on MagPlex beads, MFI)", "remark": "another data set of the same source", "values": [{"binder": "B1", "binding result": "no binding (tested: 10000 ng/mL)"}, {"binder": "B4", "binding result": "no binding (tested: 10000 ng/mL)"}, {"binder": "B5", "binding result": "no binding (tested: 10000 ng/mL)"}, {"binder": "B6", "binding result": "no binding (tested: 10000 ng/mL)"}]}]}
